In PMC11969024 (2025):

B1: peptide HD2 (from tick evasin EVA4) / CCL11 (biotinylated, synthetic) (parent complex)
chain 1: EEDDYTAYAPLTCYFT
chain 2: not shown

Variants of: B1

Question: How did the enrichment turn out when chain 1 E2S was run?
Answer: The enrichment was -1.71 log2 (difference from the parental peptide).

Question: chain 1 E2M was tested. Which enrichment did it give?
Answer: Its enrichment is -1.91 log2 (difference from the parental peptide).

Question: For chain 1 Y5I, which enrichment is on record?
Answer: Its enrichment is -4.75 log2 (difference from the parental peptide).

Question: With chain 1 D3F as the variant, how does the enrichment read?
Answer: Its enrichment is -1.93 log2 (difference from the parental peptide).

Question: How did the enrichment turn out when chain 1 L11E was run?
Answer: Its enrichment is -2.74 log2 (difference from the parental peptide).

Question: With chain 1 L11F as the variant, how does the enrichment read?
Answer: Its enrichment is -0.71 log2 (difference from the parental peptide).

Question: chain 1 T16I was tested. Which enrichment did it give?
Answer: The enrichment was 0.443 log2 (difference from the parental peptide).

Question: For chain 1 P10W, which enrichment is on record?
Answer: Its enrichment is -7.42 log2 (difference from the parental peptide).

Question: Which enrichment does the source give for chain 1 T6P here?
Answer: Its enrichment is -4.98 log2 (difference from the parental peptide).

Question: Which enrichment does the source give for chain 1 A7D here?
Answer: Its enrichment is 2.81 log2 (difference from the parental peptide).

Question: Which enrichment does the source give for chain 1 A7K here?
Answer: Its enrichment is 1.27 log2 (difference from the parental peptide).

Question: With chain 1 Y14H as the variant, how does the enrichment read?
Answer: The enrichment was -2.21 log2 (difference from the parental peptide).

Question: How did the enrichment turn out when chain 1 Y14K was run?
Answer: Its enrichment is -7.74 log2 (difference from the parental peptide).

Question: How did the enrichment turn out when chain 1 Y14S was run?
Answer: The enrichment was -5.39 log2 (difference from the parental peptide).

Question: For chain 1 Y14C, which enrichment is on record?
Answer: The enrichment was -5.72 log2 (difference from the parental peptide).

Question: How did the enrichment turn out when chain 1 A9H was run?
Answer: The enrichment was -4.7 log2 (difference from the parental peptide).

Question: For chain 1 A9F, which enrichment is on record?
Answer: The enrichment was -8.22 log2 (difference from the parental peptide).

Question: chain 1 F15A was tested. Which enrichment did it give?
Answer: Its enrichment is 0.737 log2 (difference from the parental peptide).

Question: How did the enrichment turn out when chain 1 F15D was run?
Answer: Its enrichment is -0.00314 log2 (difference from the parental peptide).

Question: How did the enrichment turn out when chain 1 F15Q was run?
Answer: Its enrichment is -0.31 log2 (difference from the parental peptide).

Question: With chain 1 F15R as the variant, how does the enrichment read?
Answer: The enrichment was -3.27 log2 (difference from the parental peptide).

Question: chain 1 T12R was tested. Which enrichment did it give?
Answer: The enrichment was -3.61 log2 (difference from the parental peptide).

Question: Which enrichment does the source give for chain 1 T12W here?
Answer: The enrichment was -2.96 log2 (difference from the parental peptide).

Question: chain 1 T12D was tested. Which enrichment did it give?
Answer: Its enrichment is -2.24 log2 (difference from the parental peptide).

Question: With chain 1 T12S as the variant, how does the enrichment read?
Answer: Its enrichment is -1.64 log2 (difference from the parental peptide).

Question: With chain 1 T12N as the variant, how does the enrichment read?
Answer: The enrichment was -0.967 log2 (difference from the parental peptide).

Question: For chain 1 E1Y, which enrichment is on record?
Answer: The enrichment was -1.08 log2 (difference from the parental peptide).

Question: With chain 1 E1D as the variant, how does the enrichment read?
Answer: Its enrichment is 2.04 log2 (difference from the parental peptide).

Question: With chain 1 C13F as the variant, how does the enrichment read?
Answer: The enrichment was -7.62 log2 (difference from the parental peptide).

Question: How did the enrichment turn out when chain 1 C13W was run?
Answer: The enrichment was -7.9 log2 (difference from the parental peptide).
